Assay results published in US20170298096A1 (CANIMGUIDE THERAPEUTICS, published 2017).
No end group written: not given here.

T1: His-tagged P3028 (human, not fully specified)
T1 construct: the tag is put first after 'PGE73=His-tag-P3028'; also called PGE73; not shown: His-tag
T1 peptide: {His‑tag}-VFDEFKPLVEEPQNLIK

B1: P28R K9R (peptide)
peptide: KKLDTFFVRLSLFTER
B2: P28R R16K (peptide)
peptide: KKLDTFFVKLSLFTEK
B3: P28R L12Y (peptide)
peptide: KKLDTFFVKLSYFTER
B4: P28R L3V (peptide)
peptide: KKVDTFFVKLSLFTER
B5: P28R L12E (peptide)
peptide: KKLDTFFVKLSEFTER
B6: P28R L10I (peptide)
peptide: KKLDTFFVKISLFTER
B7: P28R L10S (peptide)
peptide: KKLDTFFVKSSLFTER
B8: P28R R16H (peptide)
peptide: KKLDTFFVKLSLFTEH
B9: P28R K9W (peptide)
peptide: KKLDTFFVWLSLFTER
B10: P28R L10W (peptide)
peptide: KKLDTFFVKWSLFTER
B11: P28R K9Y (peptide)
peptide: KKLDTFFVYLSLFTER
B12: P28R L3I (peptide)
peptide: KKIDTFFVKLSLFTER
B13: P28R L10Y (peptide)
peptide: KKLDTFFVKYSLFTER
B14: P28R L12I (peptide)
peptide: KKLDTFFVKLSIFTER
B15: P28R L10E (peptide)
peptide: KKLDTFFVKESLFTER
B16: P28R L3F (peptide)
peptide: KKFDTFFVKLSLFTER
B17: P28R L3K (peptide)
peptide: KKKDTFFVKLSLFTER
B18: P28R L12A (peptide)
peptide: KKLDTFFVKLSAFTER
B19: P28R R16A (peptide)
peptide: KKLDTFFVKLSLFTEA
B20: P28R R16F (peptide)
peptide: KKLDTFFVKLSLFTEF
B21: P28R R16S (peptide)
peptide: KKLDTFFVKLSLFTES
B22: P28R R16E (peptide)
peptide: KKLDTFFVKLSLFTEE
B23: P28R L10A (peptide)
peptide: KKLDTFFVKASLFTER
B24: P28R L10T (peptide)
peptide: KKLDTFFVKTSLFTER
B25: P28R L10V (peptide)
peptide: KKLDTFFVKVSLFTER
B26: P28R L12Q (peptide)
peptide: KKLDTFFVKLSQFTER
B27: P28R R16Q (peptide)
peptide: KKLDTFFVKLSLFTEQ
B28: P28R L10Q (peptide)
peptide: KKLDTFFVKQSLFTER
B29: P28R R16D (peptide)
peptide: KKLDTFFVKLSLFTED
B30: P28R R16Y (peptide)
peptide: KKLDTFFVKLSLFTEY
B31: P28R R16V (peptide)
peptide: KKLDTFFVKLSLFTEV
B32: P28R L10N (peptide)
peptide: KKLDTFFVKNSLFTER
B33: P28R L10D (peptide)
peptide: KKLDTFFVKDSLFTER
B34: P28R L12V (peptide)
peptide: KKLDTFFVKLSVFTER
B35: P28R L3H (peptide)
peptide: KKHDTFFVKLSLFTER
B36: P28R L10R (peptide)
peptide: KKLDTFFVKRSLFTER
B37: P28R R16L (peptide)
peptide: KKLDTFFVKLSLFTEL
B38: P28R L3Y (peptide)
peptide: KKYDTFFVKLSLFTER
B39: P28R L3M (peptide)
peptide: KKMDTFFVKLSLFTER
B40: P28R S11A (peptide)
peptide: KKLDTFFVKLALFTER
B41: P28R L3D (peptide)
peptide: KKDDTFFVKLSLFTER
B42: P28R R16T (peptide)
peptide: KKLDTFFVKLSLFTET
B43: P28R L10F (peptide)
peptide: KKLDTFFVKFSLFTER
B44: P28R R16M (peptide)
peptide: KKLDTFFVKLSLFTEM
B45: P28R R16I (peptide)
peptide: KKLDTFFVKLSLFTEI
B46: P28R R16N (peptide)
peptide: KKLDTFFVKLSLFTEN
B47: P28R R16W (peptide)
peptide: KKLDTFFVKLSLFTEW
B48: P28R L12H (peptide)
peptide: KKLDTFFVKLSHFTER
B49: P28R L12N (peptide)
peptide: KKLDTFFVKLSNFTER
B50: P28R L3T (peptide)
peptide: KKTDTFFVKLSLFTER
B51: P28R L3S (peptide)
peptide: KKSDTFFVKLSLFTER
B52: P28R L12F (peptide)
peptide: KKLDTFFVKLSFFTER
B53: P28R L12D (peptide)
peptide: KKLDTFFVKLSDFTER
B54: P28R L10K (peptide)
peptide: KKLDTFFVKKSLFTER
B55: P28R L3Q (peptide)
peptide: KKQDTFFVKLSLFTER
B56: P28R L12K (peptide)
peptide: KKLDTFFVKLSKFTER
B57: P28R K9V (peptide)
peptide: KKLDTFFVVLSLFTER
B58: P28R L3E (peptide)
peptide: KKEDTFFVKLSLFTER
B59: P28R K9T (peptide)
peptide: KKLDTFFVTLSLFTER
B60: P28R L3W (peptide)
peptide: KKWDTFFVKLSLFTER
B61: P28R L12R (peptide)
peptide: KKLDTFFVKLSRFTER
B62: P28R L3N (peptide)
peptide: KKNDTFFVKLSLFTER
B63: P28R L12W (peptide)
peptide: KKLDTFFVKLSWFTER
B64: P28R K9S (peptide)
peptide: KKLDTFFVSLSLFTER
B65: P28R L10M (peptide)
peptide: KKLDTFFVKMSLFTER
B66: P28R L3A (peptide)
peptide: KKADTFFVKLSLFTER
B67: P28R L3R (peptide)
peptide: KKRDTFFVKLSLFTER
B68: P28R L10H (peptide)
peptide: KKLDTFFVKHSLFTER
B69: P28R L12M (peptide)
peptide: KKLDTFFVKLSMFTER
B70: P28R L12T (peptide)
peptide: KKLDTFFVKLSTFTER
B71: P28R L12S (peptide)
peptide: KKLDTFFVKLSSFTER

Molecular target: T1, His-tagged P3028
Assay: chip ELISA

Binder | ELISA signal
B1 | 374
B2 | 291
B3 | 320
B4 | 377
B5 | 82
B6 | 415
B7 | 351
B8 | 239
B9 | 245
B10 | 316
B11 | 198
B12 | 454
B13 | 382
B14 | 456
B15 | 81
B16 | 393
B17 | 386
B18 | 462
B19 | 226
B20 | 297
B21 | 184
B22 | 107
B23 | 426
B24 | 399

Binder | ELISA signal
B25 | 658
B26 | 651
B27 | 133
B28 | 470
B29 | 133
B30 | 311
B31 | 254
B32 | 365
B33 | 102
B34 | 545
B35 | 477
B36 | 439
B37 | 217
B38 | 344
B39 | 460
B40 | 318
B41 | 492
B42 | 292
B43 | 403
B44 | 238
B45 | 176
B46 | 311
B47 | 202
B48 | 460

Binder | ELISA signal
B49 | 462
B50 | 451
B51 | 393
B52 | 389
B53 | 89
B54 | 285
B55 | 473
B56 | 355
B57 | 248
B58 | 528
B59 | 347
B60 | 341
B61 | 483
B62 | 374
B63 | 409
B64 | 274
B65 | 460
B66 | 427
B67 | 370
B68 | 293
B69 | 499
B70 | 437
B71 | 478
